Assay results: doi:10.1101/2021.09.07.459239

Tests used:
[1] = biological target: CD80 cytosolic tail peptide (20-mer); test: ELISA
[2] = biological target: CD86 cytosolic tail peptide (20-mer); test: ELISA
[3] = biological target: rF2-Nef protein (HIV-1 Subtype C), full length wild type (HIV-1 subtype C (F2 isolate)); test: MST

Molecule	fold increase of ELISA signal over CD74 peptide or no-peptide wells [1] [fold]	fold increase of ELISA signal over CD74 peptide or no-peptide wells [2] [fold]	Kd [3] [µM]
rF2-Nef protein (HIV-1 Subtype C), full length wild type (natural protein)	4	4	–
PRCRERRRNERLRRESVRPV [CD80 cytosolic tail peptide (20-mer)]	–	–	27
LWKWKKKKRPRNSYKCGTNT [CD86 cytosolic tail peptide (20-mer)]	–	–	0.112
